Square brackets hold non-standard residues; d marks the D form. Primed or numbered codes have the meaning given here. Side chains are listed from the residue outwards. Ends that are not written are not given here. * marks the point of attachment. DOTA = O=C(O)CN1CCN(CC(=O)O)CCN(CC(=O)*)CCN(CC(=O)O)CC1; Biotin = O=C1N[C@H]2[C@H](CS[C@H]2CCCCC(=O)*)N1; Butanoyl(4-(4-I-phenyl)) = O=C(CCCc1ccc(I)cc1)*; Butanoyl(4-(4-MePh)) = Cc1ccc(CCCC(=O)*)cc1; FB = fluorobenzaldehyde oxime; Folate = pteroic acid on Glu; PEG3′ = PEG3 spacer; PEG7′ = PEG7 spacer; AO = aminooxy
How the values were obtained:
[1] = target: FOLR1 human recombinant protein (human) (UniProt P15328); experiment: ELISA on FOLR1, linker screen
FOLR1 human recombinant protein (human), sequence (P15328 25-233 limits assumed): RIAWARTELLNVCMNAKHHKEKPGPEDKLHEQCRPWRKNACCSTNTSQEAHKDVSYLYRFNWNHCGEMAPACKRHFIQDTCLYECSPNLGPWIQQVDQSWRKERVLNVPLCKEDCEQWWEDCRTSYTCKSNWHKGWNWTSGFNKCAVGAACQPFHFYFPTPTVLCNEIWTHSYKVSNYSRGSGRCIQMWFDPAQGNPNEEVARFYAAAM

[2] = target: FOLR1 human recombinant protein (human) (UniProt P15328); experiment: ELISA on FOLR1
[3] = target: mouse plasma proteins (CD-1 mouse); experiment: plasma protein binding, dialysis 4 h at 37 C, 2 µM, LC-MS/MS
[4] = target: human plasma proteins; experiment: as above
[5] = target: mouse plasma proteins (CD-1 mouse); experiment: plasma protein binding; measured on the FB form
[6] = target: human plasma proteins; experiment: plasma protein binding; measured on the FB form

Binder | Plasma % Bound [3] [%] | Plasma % Bound [4] [%] | further results
{folate-PEG7′}-[dH][dS][dH][dT][dA] (triazole (positions not given here); also: triazole macrocycle via Pra and Az4, places not given here, biotin label, site not given here) [Folate-PEG7-hshta] |  |  | EC50 [1]: 1 nM
[dD][dE][dR][dY][dT] (triazole (positions not given here); also: flanked by Pra and Az4 joined by 1,2,3-triazole, sides not given here) [deryt (SEQ ID NO:20) PCC alone] |  |  | EC50 [2]: 10000 nM
Biotin-[dK][dY][dE][dE][dT] (triazole (positions not given here); also: folate joined via PEG linker and triazole (Tz), site not placed, triazole macrocycle via Pra and Az4 flanking kyeet, not placed in chain) [folate-kyeet Tz heterobiligand] |  |  | EC50 [2]: 0.149 nM
Biotin-[dH][dS][dH][dT][dA] (triazole (positions not given here); also: triazole macrocycle via Pra and Az4, places not given here, folate joined through PEG linker and triazole, site not given here) [folate-hshta Tz heterobiligand] |  |  | EC50 [2]: 0.107 nM
[dH][dS][dH][dT][dA][PEG3′]K(Butanoyl(4-(4-MePh)))K(DOTA)-OH (triazole (positions not given here); not fully specified (N-terminus); printed as folate-hshta-PEG3-Lys(MPBA)-Lys(DOTA); numbers in words are those of the source; also: triazole macrocycle via Pra and Az4, places not given here) [Folate-hshta-PEG3-Lys(MPBA)-Lys(DOTA) (compound #2809)] | 92.1 | 83.3 | 
folate-[dH][dS][dH][dT][dA][PEG3′]K([AO-FB]) (triazole (positions not given here); numbers in words are those of the source; also: triazole macrocycle via Pra and Az4, places not given here) [Fol-hshta-PEG3-Lys(FB) (compound #2)] | 20.2 | 43 | Plasma % Bound [5]: 20.2%; Plasma % Bound [6]: 43%
folate-[dH][dS][dH][dT][dA][PEG3′]K(DOTA)-OH (triazole (positions not given here); not fully specified; printed as folate-hshta-PEG3-Lys(DOTA); numbers in words are those of the source; also: triazole macrocycle via Pra and Az4, places not given here) [Fol-hshta-PEG3-Lys(DOTA) (compound #1189)] | 29.5 | 46 | 
Folate-[dH][dS][dH][dT][dA]GFK(DOTA)-OH (not fully specified (bridges); printed as folate-hshta-Gly-Phe-Lys(DOTA); also: triazole macrocycle closed by Pra and Lys(N3)/Az4 flanking hshta, not in the given chain) [Folate-hshta-G-F-K(DOTA)-OH (Indi 7327, compound #7327)] | 40.9 | 40.3 | 
[dH][dS][dH][dT][dA]K(Butanoyl(4-(4-MePh)))GFK(DOTA)-OH (triazole (positions not given here); not fully specified (N-terminus); also: triazole macrocycle via Pra and Az4, places not given here) [Folate-hshta-Lys(MPBA)-Gly-Phe-Lys(DOTA) (compound #6305)] | 96.3 | 98.3 | 
[dH][dS][dH][dT][dA]K(Butanoyl(4-(4-I-phenyl)))GFK(DOTA) (triazole (positions not given here); not fully specified (N-terminus); also: triazole macrocycle via Pra and Az4, places not given here) [Folate-hshta-Lys(IPBA)-Gly-Phe-Lys(DOTA) (compound #1307)] | 99.6 | 99.5 | 
folate-[dH][dS][dH][dT][dA]K(Butanoyl(4-(4-I-phenyl)))MVK(DOTA)-OH (triazole (positions not given here); not fully specified; also: triazole macrocycle via Pra and Az4, places not given here) [Folate-hshta-Lys(IPBA)-M-V-Lys(DOTA) (compound #1306)] | 97.1 | 97.3 | 
[dH][dS][dH][dT][dA]KGFK([PEG3′-DOTA]) (triazole (positions not given here); not fully specified (residue 6, N-terminus); also: triazole macrocycle via Pra and Az4, places not given here) [Fol-hshta-Lys(4-MPBA)-Gly-Phe-Lys(PEG3-DOTA) (compound #3302)] | 96.5 | 94.9 | 
folate-[dH][dS][dH][dT][dA][PEG3′]GFK(DOTA) (triazole (positions not given here); numbers in words are those of the source; also: triazole macrocycle via Pra and Az4, places not given here) [Fol-hshta-PEG3-Gly-Phe-Lys(DOTA) (compound #6307)] | 40.6 | 41.3 | 
folate-[dH][dS][dH][dT][dA]GFK(AO) (triazole (positions not given here); not fully specified; printed as Fol-hshta-Gly-Phe-Lys(AO); also: triazole macrocycle via Pra and Az4, places not given here) [Fol-hshta-Gly-Phe-Lys(AO) (compound #3303)] |  |  | Plasma % Bound [5]: 75.5%; Plasma % Bound [6]: 81%
[dD][dE][dR][dY][dT] (triazole (positions not given here); also: triazole macrocycle via Pra and Az4, places not given here, folate conjugated, linker and site not given here) [Folate-deryt heterobiligand (construct not specified)] |  |  | EC50 [1]: 0.28 nM

From US20240053349A1
